Measured values from patent publication US20140249468A1 (UNITED STATES OF AMERICA AS REPRESENTED BY THE SECRETARY …, published 2014).
Each block holds one binder with its values, some of them ahead of it. Square brackets hold non-standard residues; d marks the D form. Ends that are not written are not given here.

Tests used:
[1] = biological target: T1, APMA-activated recombinant human MMP-2 (human, UniProt P08253 110-660, limits assumed); test: cell-based or functional assay
T1 sequence (looked up): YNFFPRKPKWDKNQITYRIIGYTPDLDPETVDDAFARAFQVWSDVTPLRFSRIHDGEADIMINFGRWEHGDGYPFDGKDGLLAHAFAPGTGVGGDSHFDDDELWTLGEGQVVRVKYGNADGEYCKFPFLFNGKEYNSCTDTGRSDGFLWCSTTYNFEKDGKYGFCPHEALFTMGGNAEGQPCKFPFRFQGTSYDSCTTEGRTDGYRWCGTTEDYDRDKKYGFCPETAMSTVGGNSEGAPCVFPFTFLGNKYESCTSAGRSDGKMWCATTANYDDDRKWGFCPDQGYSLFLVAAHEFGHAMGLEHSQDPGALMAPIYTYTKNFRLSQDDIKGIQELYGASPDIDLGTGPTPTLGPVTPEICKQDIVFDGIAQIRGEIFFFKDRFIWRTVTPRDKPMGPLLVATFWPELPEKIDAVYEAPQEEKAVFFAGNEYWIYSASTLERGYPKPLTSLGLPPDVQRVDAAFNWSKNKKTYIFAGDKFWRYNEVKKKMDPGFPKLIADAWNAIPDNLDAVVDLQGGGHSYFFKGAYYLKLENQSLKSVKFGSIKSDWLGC

[2] = biological target: T2, ανβ3 integrin receptor on U87MG human glioma cells (human, UniProt P06756 31-1048; P05106 27-788); test: competitive cell-binding assay on U87MG cells, displacement of 125I-echistatin
T2 construct: whole, on cells; Endogenous receptor on U87MG cells; also called ανβ3 receptor
T2 sequence (P06756 31-1048, chain 1 of 2): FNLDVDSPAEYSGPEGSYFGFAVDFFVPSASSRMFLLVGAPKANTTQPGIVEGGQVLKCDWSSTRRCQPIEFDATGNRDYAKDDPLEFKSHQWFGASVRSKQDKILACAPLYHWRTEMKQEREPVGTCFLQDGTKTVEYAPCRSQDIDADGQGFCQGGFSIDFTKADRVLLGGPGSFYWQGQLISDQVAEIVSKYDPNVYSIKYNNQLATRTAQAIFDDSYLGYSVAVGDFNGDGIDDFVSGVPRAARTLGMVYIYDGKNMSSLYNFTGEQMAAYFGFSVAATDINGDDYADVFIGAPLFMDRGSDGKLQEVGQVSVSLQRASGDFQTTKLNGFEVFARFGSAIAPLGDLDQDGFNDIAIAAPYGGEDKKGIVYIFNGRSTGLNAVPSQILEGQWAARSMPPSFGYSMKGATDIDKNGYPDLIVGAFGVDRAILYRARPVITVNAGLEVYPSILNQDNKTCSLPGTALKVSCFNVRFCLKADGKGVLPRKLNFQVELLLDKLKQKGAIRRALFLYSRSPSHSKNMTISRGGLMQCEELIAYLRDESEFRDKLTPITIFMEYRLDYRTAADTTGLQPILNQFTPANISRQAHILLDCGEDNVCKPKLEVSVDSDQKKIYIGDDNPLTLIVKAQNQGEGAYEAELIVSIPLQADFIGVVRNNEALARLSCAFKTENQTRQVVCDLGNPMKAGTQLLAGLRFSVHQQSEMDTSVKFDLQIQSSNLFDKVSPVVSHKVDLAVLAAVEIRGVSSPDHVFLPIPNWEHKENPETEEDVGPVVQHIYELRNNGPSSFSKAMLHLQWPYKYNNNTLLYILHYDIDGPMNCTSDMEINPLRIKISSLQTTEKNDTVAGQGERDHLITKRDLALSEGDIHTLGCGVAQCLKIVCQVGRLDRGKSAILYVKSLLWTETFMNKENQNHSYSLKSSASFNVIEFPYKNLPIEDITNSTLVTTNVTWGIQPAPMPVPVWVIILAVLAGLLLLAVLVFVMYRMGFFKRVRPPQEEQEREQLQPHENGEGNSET
T2 sequence (P05106 27-788, chain 2 of 2): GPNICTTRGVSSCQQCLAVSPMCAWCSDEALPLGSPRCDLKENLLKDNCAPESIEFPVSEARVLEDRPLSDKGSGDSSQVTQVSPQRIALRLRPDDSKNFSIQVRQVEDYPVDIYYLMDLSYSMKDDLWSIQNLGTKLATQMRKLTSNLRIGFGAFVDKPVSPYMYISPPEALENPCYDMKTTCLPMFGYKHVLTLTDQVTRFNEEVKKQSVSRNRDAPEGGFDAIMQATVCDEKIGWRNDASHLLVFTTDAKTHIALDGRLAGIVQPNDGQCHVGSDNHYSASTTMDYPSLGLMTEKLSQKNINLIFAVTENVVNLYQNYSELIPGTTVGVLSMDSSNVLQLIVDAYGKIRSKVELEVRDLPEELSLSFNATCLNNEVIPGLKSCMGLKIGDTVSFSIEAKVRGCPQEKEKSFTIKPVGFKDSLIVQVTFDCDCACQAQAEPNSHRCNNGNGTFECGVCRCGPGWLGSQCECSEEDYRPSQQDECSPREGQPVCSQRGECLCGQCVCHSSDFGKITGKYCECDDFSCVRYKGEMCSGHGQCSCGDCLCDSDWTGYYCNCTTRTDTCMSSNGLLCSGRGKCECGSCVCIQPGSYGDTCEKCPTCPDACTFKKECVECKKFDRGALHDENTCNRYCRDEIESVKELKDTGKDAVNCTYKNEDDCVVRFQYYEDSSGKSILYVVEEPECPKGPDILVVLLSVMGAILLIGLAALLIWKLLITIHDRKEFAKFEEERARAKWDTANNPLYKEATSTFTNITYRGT
Method: Briefly, the U87MG cell line was cultured in DMEM medium containing 10% (v/v) fetal bovine serum supplemented with penicillin (100 μg/ml), streptomycin (100 μg/ml), non-essential amino acids (100 mM) and sodium pyruvate (1 mM) at 37° C. with 5% CO₂. […] After incubation, the plate was washed three times with PBS containing 0.1% BSA, and the radioactivity was measured by γ-counting. The IC₅₀ values were calculated by nonlinear regression analysis.

recovery of the NIR fluorescence signal [1]: > 20 fold
B1: compound 4 (MMP-P-RGD) (peptide)
peptide 1: {Cy5.5}-GPLGVRGK(BHQ‑3)GG
peptide 2: RGDYK
modifications: not fully specified (some residues); also: chain 1 C-terminal carboxyl conjugated to chain 2, c(RGDyK), linkage site not given here, head-to-tail to a chain's N/C-terminus

IC50 [2]: 456 nM
B2: compound 7 (peptide)
peptide: cyclo(RGD[dY]K(CW800))
notes: Made by conjugating CW800 NHS ester to c(RGDyK); also called CW800-labelled c(RGDyK)
